Measured values taken from patent US20230391880A1 (published 2023).

T1: human RANKL (receptor activator of nuclear factor-kappa B ligand) (human, UniProt O14788 140-317, limits assumed)
T1 construct: also called OPGL
T1 sequence (looked up): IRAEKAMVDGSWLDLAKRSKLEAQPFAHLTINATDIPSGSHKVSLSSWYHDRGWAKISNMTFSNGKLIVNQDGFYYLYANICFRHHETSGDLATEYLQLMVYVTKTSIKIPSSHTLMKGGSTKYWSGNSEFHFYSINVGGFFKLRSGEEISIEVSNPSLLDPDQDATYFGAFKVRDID

T2: human Activin A (human, UniProt A4D1W7 311-426, Activin A is a disulfide-linked homodimer of the inhibin beta A mature chain. One copy is given.)
T2 sequence: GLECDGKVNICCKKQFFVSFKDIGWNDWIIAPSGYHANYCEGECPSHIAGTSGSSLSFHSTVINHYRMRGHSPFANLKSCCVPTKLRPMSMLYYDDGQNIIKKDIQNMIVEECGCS

T3: human TGF-β3 (human, UniProt P10600 301-412)
T3 sequence (looked up): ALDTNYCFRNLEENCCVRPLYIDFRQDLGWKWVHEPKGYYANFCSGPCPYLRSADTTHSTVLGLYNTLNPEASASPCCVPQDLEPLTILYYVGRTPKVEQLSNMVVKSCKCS


Experiments:
Experiment in all cases: BLI (Octet RED96), antagonist captured on biosensor, ligand in solution
[1] = molecular target: T1, human RANKL (receptor activator of …)
Description: (§1) Binding activities of individual bifunctional antagonists to human ligands or target proteins were measured by biolayer interferometry (BLI) using Octet RED96 (FortéBIO, Pall Corporation, USA). Binding analysis was performed by first capturing the polypeptide bifunctional antagonists to biosensors followed by two baseline steps in 1× kinetic buffer. The bifunctional antagonists-captured biosensors were then submerged in wells containing different concentrations of specific individual ligand, such as RANKL, Activin A, activin B, Activin AB, myostatin, TGF-β1, TGF-β2 or TGF-β3, for 6 min association followed by 6 min of dissociation time in 1× kinetic buffer. The bifunctional antagonists-captured sensors were also dipped in wells containing 1× kinetic buffer to allow single reference subtraction in order to compensate for the natural dissociation of captured bifunctional antagonists. The binding sensorgrams were collected using the 8-channel detection mode on the Octet RED96 biosensor. Data were acquired and analyzed using the data acquisition software v11.1 (FortéBIO, Pall Corporation, USA).

human Activin A = molecular target: T2, human Activin A
Description: as §1

human TGF-β1 = human TGF-β1 (human, UniProt P01137 279-390)
Sequence of human TGF-β1 (P01137 279-390 limits assumed): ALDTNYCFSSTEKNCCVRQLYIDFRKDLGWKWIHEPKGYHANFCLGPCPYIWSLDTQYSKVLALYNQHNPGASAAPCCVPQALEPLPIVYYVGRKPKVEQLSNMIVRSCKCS
Description: as §1

human TGF-β3 = molecular target: T3, human TGF-β3
Description: as §1

Kd [1] [nM]	Kd (human Activin A) [nM]	Kd (human TGF-β1) [nM]	Kd (human TGF-β3) [nM]	Binder
~0.001	~0.3	–	–	bispecific antibody A237 (bispecific antibody) heavy: QVQLVQSGAEVKKPGASVKVSCKASGYTFTSYGLSWVRQAPGQGLEWMGWIIPYNGNTNSAQKLQGRVTMTTDTSTSTAYMELRSLRSDDTAVYFCARDRDYGVNYDAFDIWGQGTMVTVSSGGGGSGGGGSGGGGSEVQLLESGGGLVQPGGSLRLSCAASGFTFSSYAMSWVRQAPGKGLEWVSGITGSGGSTYYADSVKGRFTISRDNSKNTLYLQMNSLRAEDTAVYYCAKDPGTTVIMSWFDPWGQGTLVTVSSASTKGPSVFPLAPCSRSTSESTAALGCLVKDYFPEPVTVSWNSGALTSGVHTFPAVLQSSGLYSLSSVVTVPSSNFGTQTYTCNVDHKPSNTKVDKTVERKCCVECPPCPAPPVAGPSVFLFPPKPKDTLMISRTPEVTCVVVDVSHEDPEVQFNWYVDGVEVHNAKTKPREEQFNSTFRVVSVLTVVHQDWLNGKEYKCKVSNKGLPAPIEKTISKTKGQPREPQVYTLPPSREEMTKNQVSLTCLVKGFYPSDIAVEWESNGQPENNYKTTPPMLDSDGSFFLYSKLTVDKSRWQQGNVFSCSVMHEALHNHYTQKSLSLSPGK light: not shown
~0.7	–	~2	~0.3	bispecific antibody A241 (bispecific antibody, human IgG2, kappa) heavy: QVQLVQSGAEVKKPGSSVKVSCKASGYTFSSNVISWVRQAPGQGLEWMGGVIPIVDIANYAQRFKGRVTITADESTSTTYMELSSLRSEDTAVYYCASTLGLVLDAMDYWGQGTLVTVSSGGGGSGGGGSGGGGSEVQLLESGGGLVQPGGSLRLSCAASGFTFSSYAMSWVRQAPGKGLEWVSGITGSGGSTYYADSVKGRFTISRDNSKNTLYLQMNSLRAEDTAVYYCAKDPGTTVIMSWFDPWGQGTLVTVSSASTKGPSVFPLAPCSRSTSESTAALGCLVKDYFPEPVTVSWNSGALTSGVHTFPAVLQSSGLYSLSSVVTVPSSNFGTQTYTCNVDHKPSNTKVDKTVERKCCVECPPCPAPPVAGPSVFLFPPKPKDTLMISRTPEVTCVVVDVSHEDPEVQFNWYVDGVEVHNAKTKPREEQFNSTFRVVSVLTVVHQDWLNGKEYKCKVSNKGLPAPIEKTISKTKGQPREPQVYTLPPSREEMTKNQVSLTCLVKGFYPSDIAVEWESNGQPENNYKTTPPMLDSDGSFFLYSKLTVDKSRWQQGNVFSCSVMHEALHNHYTQKSLSLSPGK light: ETVLTQSPGTLSLSPGERATLSCRASQSLGSSYLAWYQQKPGQAPRLLIYGASSRAPGIPDRFSGSGSGTDFTLTISRLEPEDFAVYYCQQYADSPITFGQGTRLEIKGGGGSGGGGSGGGGSEIVLTQSPGTLSLSPGERATLSCRASQSVRGRYLAWYQQKPGQAPRLLIYGASSRATGIPDRFSGSGSGTDFTLTISRLEPEDFAVFYCQQYGSSPRTFGQGTKVEIKRTVAAPSVFIFPPSDEQLKSGTASVVCLLNNFYPREAKVQWKVDNALQSGNSQESVTEQDSKDSTYSLSSTLTLSKADYEKHKVYACEVTHQGLSSPVTKSFNRGEC
